Reference: PMC5670123, “The structural basis of proton driven zinc transport by ZntB” (Nature Communications, 2017)

Biological target: the molecule itself
Assay: cryo-EM structure; single-particle cryo-EM of DDM-solubilized, purified EcZntB pre-treated with EDTA (apo), ~10 mg/ml, 50 mM Tris/HCl pH 8.0, 250 mM NaCl, 0.03% DDM; overall resolution 4.2 Å

B1: ZntB from Escherichia coli, full-length (natural protein, UniProt P64423 1-327, looked up)
chain: MEAIKGSDVNVPDAVFAWMLDGRGGVKPLENTDVIDEAHPCWLHLNYVHHDSAQWLATTPLLPNNVRDALAGESTRPRVSRLGEGTLITLRCINGSTDERPDQLVAMRVYMDGRLIVSTRQRKVLALDDVVSDLEEGTGPTDCGGWLVDVCDALTDHSSEFIEQLHDKIIDLEDNLLDQQIPPRGFLALLRKQLIVMRRYMAPQRDVYARLASERLPWMSDDQRRRMQDIADRLGRGLDEIDACIARTGVMADEIAQVMQENLARRTYTMSLMAMVFLPSTFLTGLFGVNLGGIPGGGWQFGFSIFCILLVVLIGGVALWLHRSKWL
notes: Zinc transporter ZntB of Escherichia coli (CorA metal ion transporter family), full-length; Homopentamer in DDM micelles, apo (pre-treated with EDTA); TEV protease (ProTev Plus) is described only for the proteoliposome transport assay, not for the cryo-EM sample; also called EcZntB; source: membrane vesicles solubilized in DDM, purified (Ni2+-sepharose, EDTA treatment, Superdex 200 SEC)
- stoichiometry N: 5
